By stoichiometry N is commonly meant a count of units in the complex or per binding partner.

Data on one protein can be found in publication PMC3215729, “Rv2607 from Mycobacterium tuberculosis Is a Pyridoxine 5′-Phosphate Oxidase with Unusual Substrate Specificity” (PLoS ONE, 2011).

This data set deals with the molecule itself. The data set is described as follows: native MS.

B1: Rv2607 from Mycobacterium tuberculosis H37Rv, amino-terminal 6x-histidine tag fusion protein (enzyme)
chain: MDDDAQMVAIDKDQLARMRGEYGPEKDGCGDLDFDWLDDGWLTLLRRWLNDAQRAGVSEPNAMVLATVADGKPVTRSVLCKILDESGVAFFTSYTSAKGEQLAVTPYASATFPWYQLGRQAHVQGPVSKVSTEEIFTYWSMRPRGAQLGAWASQQSRPVGSRAQLDNQLAEVTRRFADQDQIPVPPGWGGYRIAPEIVEFWQGRENRMHNRIRVANGRLERLQP
notes: also called PNPOx; pyridoxine 5'-phosphate oxidase; not shown: His6, N-terminal, kept
With B1, the “stoichiometry N” value amounted to 2.
